In US20160024199A1 (US Dept. of Health and Human Services, published 2016):

Experiments:
[1] = molecular target: T1, recombinant human insulin-like growth factor I (IGF-I) (human, UniProt P05019 49-118); assay: Biacore, IgG1 format
T1 construct: coated or coupled to a CM5 chip in ELISA and Biacore; also called biotinylated IGF-I

[2] = molecular target: T2, human insulin-like growth factor II (IGF-II) (human, UniProt P01344 25-91); assay: Biacore, IgG1 format
T2 construct: also called biotinylated IGF-II

[3] = molecular target: T1, recombinant human insulin-like growth …; assay: cell-based or functional assay
[4] = molecular target: T2, human insulin-like growth factor II …; assay: cell-based or functional assay
[5] = molecular target: T1, recombinant human insulin-like growth …; assay: Biacore, IgG1 format (effective KD, avidity)
[6] = molecular target: T2, human insulin-like growth factor II …; assay: Biacore, IgG1 format (effective KD, avidity)
human insulin = human insulin (human); assay: ELISA, 10 nM IgG on coated human insulin, detected with HRP anti-human Fc antibody
[7] = molecular target: T1, recombinant human insulin-like growth …; assay: ELISA, serial dilutions of IgG on coated IGF-I, detected with HRP anti-human Fc antibody
[8] = molecular target: T2, human insulin-like growth factor II …; assay: ELISA, serial dilutions of IgG on coated IGF-II, detected with HRP anti-human Fc antibody
[9] = molecular target: T1, recombinant human insulin-like growth …; assay: ELISA on coated IGF-I after incubation of the antibody with an equal volume of human serum at 37 C for 0 to 9 days
[10] = molecular target: T2, human insulin-like growth factor II …; assay: ELISA on coated IGF-II after incubation of the antibody with an equal volume of human serum at 37 C for 0 to 9 days
[11] = molecular target: T1, recombinant human insulin-like growth …; assay: Biacore X100, antigen immobilized on CM5, soluble scFv injected
[12] = molecular target: T2, human insulin-like growth factor II …; assay: as above
[13] = molecular target: T1, recombinant human insulin-like growth …; assay: FACS titration of yeast-displayed scFv with biotinylated antigen
[14] = molecular target: T2, human insulin-like growth factor II …; assay: as above
[15] = molecular target: T1, recombinant human insulin-like growth …; assay: as above; remark: listed apart in the source
[16] = molecular target: T2, human insulin-like growth factor II …; assay: as above; remark: listed apart in the source
[17] = molecular target: T1, recombinant human insulin-like growth …; assay: ELISA on coated IGF-I after incubation of the antibody with an equal volume of human serum at 37 C for 0 to 9 days; remark: listed apart in the source
[18] = molecular target: T2, human insulin-like growth factor II …; assay: ELISA on coated IGF-II after incubation of the antibody with an equal volume of human serum at 37 C for 0 to 9 days; remark: listed apart in the source

T2 sequence (P01344 25-91): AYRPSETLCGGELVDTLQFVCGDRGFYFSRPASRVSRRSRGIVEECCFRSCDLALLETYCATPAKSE
T1 sequence (P05019 49-118 limits assumed): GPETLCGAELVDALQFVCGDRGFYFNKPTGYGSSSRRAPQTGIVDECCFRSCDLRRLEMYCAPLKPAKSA
Sequence of human insulin (human) (chain, as listed by the source limits assumed, chain 1 of 2): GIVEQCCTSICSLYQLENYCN
Sequence of human insulin (human) (chain, as listed by the source limits assumed, chain 2 of 2): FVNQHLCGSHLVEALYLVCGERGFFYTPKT

| growth inhibition of MCF-7 cells (MTS, 3 days; 2.5 nM IGF-I and 2.5 nM IGF-II added) [3] | growth inhibition of MCF-7 cells (MTS, 3 days; 2.5 nM IGF-I and 2.5 nM IGF-II added) [4] | EC50 (read off the curve) [7] | Kd [11] | koff [11] | kon [11] | Kd [12] | koff [12] | kon [12] | Kd [13] | Kd [14] | Binder | other results |
| --- | --- | --- | --- | --- | --- | --- | --- | --- | --- | --- | --- | --- |
|  |  |  | 2.2 nM | 0.0024 s⁻¹ | 1.1e+06 M⁻¹ s⁻¹ | 1.8 nM | 0.0004 s⁻¹ | 230000 M⁻¹ s⁻¹ | 3.9 nM | 1.1 nM | m708.2 scFv (scFv, V domains shown, One-chain scFv; Biacore on the isolated soluble scFv from pComb3x) VH: QVQLQQPGAEVKKPGSSVKVSCKASGGTFSSYAISWVRQAPGQGLEWMGGIIPILGIANYAQKFQGRVTITADESTSTAYMELSSLRSEDTAVYYCARGPRGYSYNFDYWGQGTLVTVSS VL: DIQMTQSPSSLSASVGDRVTIACRASQTISRYLNWYQQKPGKAPKLLIYAASSLQSGVSSRFSGSGSGTEFTLTISSLQPEDFATYFCQQTYSPPITFGQGTRLEIKR |  |
|  |  |  | 0.2 nM | 0.00028 s⁻¹ | 1.4e+06 M⁻¹ s⁻¹ | 0.061 nM | 0.00025 s⁻¹ | 4.1e+06 M⁻¹ s⁻¹ | 0.1 nM | 0.041 nM | m708.5 scFv (scFv, V domains shown, One-chain scFv; also called scFv m708.5) VH: QVQLQQLGAEVKMPGSSVKVSCKASGGTFSSYAISWVRQAPGQGLEWMGGIIPTLGIVKYAQKFQGRVTITADKSTSTAYMELSSLGSEDTAVYYCAGGPRGYSYNFDNWGQGTLVTVSS VL: DIQMTQSPSSLSASVGDRVTIVCRASQTISRYVNWYQQKPGKAPKLLIYAASSLQSGVSSRFSGSGSGTEFALTISSLQPEDFATYFCQQTYSPPITFGQGTRLEIKQ | fold improvement of affinity against m708.2 [15]: 39 fold; fold improvement of affinity against m708.2 [16]: 27 fold |

More lines, now with the values behind:

| Binder | growth inhibition of MCF-7 cells (MTS, 3 days; 2.5 nM IGF-I and 2.5 nM IGF-II added) [3] | growth inhibition of MCF-7 cells (MTS, 3 days; 2.5 nM IGF-I and 2.5 nM IGF-II added) [4] | EC50 (read off the curve) [7] | Kd [11] | koff [11] | kon [11] | Kd [12] | koff [12] | kon [12] | Kd [13] | Kd [14] | other results |
| --- | --- | --- | --- | --- | --- | --- | --- | --- | --- | --- | --- | --- |
| IgG1 m708.5 (antibody, V domains shown, Human IgG1, converted from the scFv in vector pDR12 and expressed in 293 FreeStyle cells; also called m708.5 IgG; IgG m708.5) VH: QVQLQQLGAEVKMPGSSVKVSCKASGGTFSSYAISWVRQAPGQGLEWMGGIIPTLGIVKYAQKFQGRVTITADKSTSTAYMELSSLGSEDTAVYYCAGGPRGYSYNFDNWGQGTLVTVSS VL: DIQMTQSPSSLSASVGDRVTIVCRASQTISRYVNWYQQKPGKAPKLLIYAASSLQSGVSSRFSGSGSGTEFALTISSLQPEDFATYFCQQTYSPPITFGQGTRLEIKQ | > 40 nM | > 40 nM | ~0.4 nM |  |  |  |  |  |  |  |  | fold change of effective KD against the scFv [1]: 1000 fold; fold change of effective KD against the scFv [2]: 60 fold; Kd [5]: < 0.001 nM; Kd [6]: < 0.001 nM; binding result (human insulin): no binding (tested: 10 nM); EC50 (read off the curve) [8]: ~0.1 nM; EC50 (read off the curve) [9]: ~2 nM; EC50 (read off the curve) [10]: ~2 nM |
| IgG1 m708.2 (antibody, V domains shown, Human IgG1 (pDR12, 293 FreeStyle cells); also called IgG m708.2; IgG708.2) VH: QVQLQQPGAEVKKPGSSVKVSCKASGGTFSSYAISWVRQAPGQGLEWMGGIIPILGIANYAQKFQGRVTITADESTSTAYMELSSLRSEDTAVYYCARGPRGYSYNFDYWGQGTLVTVSS VL: DIQMTQSPSSLSASVGDRVTIACRASQTISRYLNWYQQKPGKAPKLLIYAASSLQSGVSSRFSGSGSGTEFTLTISSLQPEDFATYFCQQTYSPPITFGQGTRLEIKR | > 80 nM | > 80 nM | ~3 nM |  |  |  |  |  |  |  |  | IGF-I-induced (1 nM) phosphorylation of IGF-IR in MCF-7 cells, immunoblot [3]: 10 nM |
| bispecific antibody m67 (bispecific antibody) chain 1: QVQLVQSGAEVKKPGASVKVSCKASGYTFTSYYMHWVRQAPGQGLEWMGIINPSGGSTSYAQKFQGRVTMTRDTSTSTVYMELSRLRSDDTAVYYCARDVQWLAYGMDVWGQGTTVTVSS chain 2: DIQMTQSPSSLSASVGDRVTITCRASQSISSYLNWYQQKPGRAPDLLINAASSLQSGVPSRFSGSGSGTDFTLTISSLQPEDFATYFCQQSYSLPFTFGGGTKVEIK chain 3: QVQLQQLGAEVKMPGSSVKVSCKASGGTFSSYAISWVRQAPGQGLEWMGGIIPTLGIVKYAQKFQGRVTITADKSTSTAYMELSSLGSEDTAVYYCAGGPRGYSYNFDNWGQGTLVTVSS chain 4: DIQMTQSPSSLSASVGDRVTIVCRASQTISRYVNWYQQKPGKAPKLLIYAASSLQSGVSSRFSGSGSGTEFALTISSLQPEDFATYFCQQTYSPPITFGQGTRLEIKQ |  |  |  |  |  |  |  |  |  |  |  | EC50 (read off the curve) [17]: ~1 nM; EC50 (read off the curve) [18]: ~3 nM |
